Experimental data taken from publication PMC3795685.

Target: TAP-tagged wild-type Infected Cell Polypeptide 4 (ICP4) of HSV-1 strain KOS (herpes simplex virus type 1 (HSV-1), strain KOS) (UniProt P08392)
Assay: pull-down; streptavidin affinity purification of TAP-tagged ICP4 from nuclear extracts of infected Vero cells (3 or 6 hpi), independent samples; biotin eluates analysed by Western blot, in part quantified with a LI-COR Odyssey imager and normalised to ICP4; untagged virus as control

Sequence of UniProt P08392 (P08392 whole entry): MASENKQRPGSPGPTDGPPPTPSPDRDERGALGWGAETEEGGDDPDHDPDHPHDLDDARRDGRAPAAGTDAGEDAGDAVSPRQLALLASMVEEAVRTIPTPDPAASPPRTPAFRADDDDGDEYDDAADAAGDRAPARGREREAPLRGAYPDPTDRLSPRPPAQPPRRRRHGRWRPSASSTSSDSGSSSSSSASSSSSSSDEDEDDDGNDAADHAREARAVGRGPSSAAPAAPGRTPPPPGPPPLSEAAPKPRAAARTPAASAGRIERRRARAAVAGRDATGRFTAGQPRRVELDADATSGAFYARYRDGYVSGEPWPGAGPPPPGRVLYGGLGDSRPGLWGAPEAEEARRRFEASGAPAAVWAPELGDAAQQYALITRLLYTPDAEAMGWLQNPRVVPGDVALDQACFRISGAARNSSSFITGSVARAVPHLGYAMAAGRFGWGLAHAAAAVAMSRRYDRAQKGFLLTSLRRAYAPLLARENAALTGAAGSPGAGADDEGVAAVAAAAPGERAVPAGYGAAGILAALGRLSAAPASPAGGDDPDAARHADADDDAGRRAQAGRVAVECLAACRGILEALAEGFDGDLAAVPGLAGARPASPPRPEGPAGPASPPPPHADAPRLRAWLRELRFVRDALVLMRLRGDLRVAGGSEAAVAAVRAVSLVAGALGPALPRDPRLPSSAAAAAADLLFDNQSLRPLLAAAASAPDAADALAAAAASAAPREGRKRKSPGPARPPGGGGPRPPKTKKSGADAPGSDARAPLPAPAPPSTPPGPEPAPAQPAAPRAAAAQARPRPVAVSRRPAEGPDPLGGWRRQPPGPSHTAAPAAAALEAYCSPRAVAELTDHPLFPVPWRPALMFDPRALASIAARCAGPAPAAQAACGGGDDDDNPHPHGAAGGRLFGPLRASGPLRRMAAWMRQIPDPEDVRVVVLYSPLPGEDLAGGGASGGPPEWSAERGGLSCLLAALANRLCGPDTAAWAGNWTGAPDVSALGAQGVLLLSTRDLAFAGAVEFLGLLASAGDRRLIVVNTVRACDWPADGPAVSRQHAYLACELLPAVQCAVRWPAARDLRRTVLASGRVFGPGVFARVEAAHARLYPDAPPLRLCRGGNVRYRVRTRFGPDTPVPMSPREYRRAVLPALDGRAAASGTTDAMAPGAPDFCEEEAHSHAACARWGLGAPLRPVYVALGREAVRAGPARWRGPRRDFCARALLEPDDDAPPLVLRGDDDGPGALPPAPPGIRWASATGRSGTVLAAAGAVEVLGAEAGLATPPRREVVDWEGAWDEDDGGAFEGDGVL

MED1 (natural protein)
fold increase of the amount co-purified at 6 hpi against 3 hpi (normalised to ICP4): 3 fold
